Source: paper PMC8834707, “Probing the Dynamics of Streptococcus pyogenes Cas9 Endonuclease Bound to the sgRNA Complex Using Hydrogen-Deuterium Exchange Mass Spectrometry”

Target: Cas9 (SpCas9) (Streptococcus pyogenes, UniProt Q99ZW2 1-1368)
Experiment: HDX-MS; protein:RNA 1:10 molar ratio; sgRNA without DNA; 9 peptides with reduced and 21 with increased deuterium uptake on binding; HDX buffer, pH and temperature not given in the material (section 3.4 text absent); complex at 1:10 Cas9:sgRNA formed immediately before exchange, D2O incubation 1-480 min
Settings: protein: recombinant; tags: His-tag removed with TEV protease; single-strand sgRNA with repeat-antirepeat and stem-loops

Cas9 (SpCas9), sequence (Q99ZW2 whole entry): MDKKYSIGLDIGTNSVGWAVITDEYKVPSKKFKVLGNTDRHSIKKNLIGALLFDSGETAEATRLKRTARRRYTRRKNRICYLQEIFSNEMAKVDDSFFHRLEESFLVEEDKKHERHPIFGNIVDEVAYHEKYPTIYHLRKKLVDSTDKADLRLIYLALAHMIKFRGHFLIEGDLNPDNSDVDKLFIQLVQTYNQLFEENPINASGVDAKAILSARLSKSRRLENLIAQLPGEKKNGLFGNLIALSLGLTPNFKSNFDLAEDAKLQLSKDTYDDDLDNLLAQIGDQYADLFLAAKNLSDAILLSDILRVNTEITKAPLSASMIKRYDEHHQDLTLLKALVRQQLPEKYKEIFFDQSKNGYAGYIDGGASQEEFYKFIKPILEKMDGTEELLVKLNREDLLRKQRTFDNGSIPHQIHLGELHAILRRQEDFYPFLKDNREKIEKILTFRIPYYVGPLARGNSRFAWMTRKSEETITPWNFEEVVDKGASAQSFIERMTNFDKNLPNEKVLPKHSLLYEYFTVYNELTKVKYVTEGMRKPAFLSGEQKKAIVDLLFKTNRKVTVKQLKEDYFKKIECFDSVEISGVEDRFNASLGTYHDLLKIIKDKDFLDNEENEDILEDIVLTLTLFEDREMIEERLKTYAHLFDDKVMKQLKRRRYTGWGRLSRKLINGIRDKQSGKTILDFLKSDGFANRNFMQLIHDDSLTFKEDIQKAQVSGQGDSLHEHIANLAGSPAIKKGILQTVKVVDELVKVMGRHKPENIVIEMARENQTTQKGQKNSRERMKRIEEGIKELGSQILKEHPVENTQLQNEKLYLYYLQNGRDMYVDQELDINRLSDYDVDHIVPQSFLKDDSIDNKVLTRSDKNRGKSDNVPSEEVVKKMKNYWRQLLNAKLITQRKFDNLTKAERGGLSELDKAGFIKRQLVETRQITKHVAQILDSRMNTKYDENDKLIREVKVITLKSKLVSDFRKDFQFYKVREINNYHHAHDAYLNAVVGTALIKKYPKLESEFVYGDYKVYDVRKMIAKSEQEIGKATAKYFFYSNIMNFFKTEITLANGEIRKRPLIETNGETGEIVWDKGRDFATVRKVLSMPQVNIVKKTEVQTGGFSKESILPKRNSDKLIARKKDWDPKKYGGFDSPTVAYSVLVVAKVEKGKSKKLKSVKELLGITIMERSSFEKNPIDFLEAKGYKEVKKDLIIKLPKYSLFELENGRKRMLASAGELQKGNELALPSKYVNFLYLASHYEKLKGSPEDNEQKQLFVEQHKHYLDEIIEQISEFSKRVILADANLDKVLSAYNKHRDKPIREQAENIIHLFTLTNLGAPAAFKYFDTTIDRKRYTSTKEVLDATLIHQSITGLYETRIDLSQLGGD

B1: sgRNA (103 nt) (structured_RNA)
RNA: GGUUGGACAUGCUCGACAUUCGUUUUAGAGCUAGAAAUAGCAAGUUAAAAUAAGGCUAGUCCGUUAUCAACUUGAAAAAGUGGCACCGAGUCGGUGCUUUUUU
binding result: binds
